Among the data in publication PMC4686854 (2015) are Ki and trans-inhibition of the kinase activity of KD-UBA (10 nM) towards Cdc25C peptide; residual activity values, retold here.

Test [1] concerns the target T1, mouse SAD-A KD-UBA fragment (kinase domain and UBA domain) (mouse).
T1 chain: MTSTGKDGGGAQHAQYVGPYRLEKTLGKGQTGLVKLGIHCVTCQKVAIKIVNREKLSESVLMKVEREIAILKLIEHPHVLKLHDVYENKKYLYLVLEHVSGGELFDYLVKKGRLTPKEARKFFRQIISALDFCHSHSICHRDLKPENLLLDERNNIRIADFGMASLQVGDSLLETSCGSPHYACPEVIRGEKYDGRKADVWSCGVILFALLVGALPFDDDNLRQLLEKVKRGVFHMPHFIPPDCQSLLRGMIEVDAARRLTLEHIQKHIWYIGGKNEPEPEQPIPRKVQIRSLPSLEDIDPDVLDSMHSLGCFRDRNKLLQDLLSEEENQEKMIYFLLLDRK
The experiment in a line: trans-inhibition of KD-UBA kinase activity, non-competitive fit (a = 0.19).

Test [2] addresses T2, mouse SAD-A KD-UBA fragment (kinase domain and UBA domain) (mouse).
T2 sequence (Q69Z98 whole entry, looked up): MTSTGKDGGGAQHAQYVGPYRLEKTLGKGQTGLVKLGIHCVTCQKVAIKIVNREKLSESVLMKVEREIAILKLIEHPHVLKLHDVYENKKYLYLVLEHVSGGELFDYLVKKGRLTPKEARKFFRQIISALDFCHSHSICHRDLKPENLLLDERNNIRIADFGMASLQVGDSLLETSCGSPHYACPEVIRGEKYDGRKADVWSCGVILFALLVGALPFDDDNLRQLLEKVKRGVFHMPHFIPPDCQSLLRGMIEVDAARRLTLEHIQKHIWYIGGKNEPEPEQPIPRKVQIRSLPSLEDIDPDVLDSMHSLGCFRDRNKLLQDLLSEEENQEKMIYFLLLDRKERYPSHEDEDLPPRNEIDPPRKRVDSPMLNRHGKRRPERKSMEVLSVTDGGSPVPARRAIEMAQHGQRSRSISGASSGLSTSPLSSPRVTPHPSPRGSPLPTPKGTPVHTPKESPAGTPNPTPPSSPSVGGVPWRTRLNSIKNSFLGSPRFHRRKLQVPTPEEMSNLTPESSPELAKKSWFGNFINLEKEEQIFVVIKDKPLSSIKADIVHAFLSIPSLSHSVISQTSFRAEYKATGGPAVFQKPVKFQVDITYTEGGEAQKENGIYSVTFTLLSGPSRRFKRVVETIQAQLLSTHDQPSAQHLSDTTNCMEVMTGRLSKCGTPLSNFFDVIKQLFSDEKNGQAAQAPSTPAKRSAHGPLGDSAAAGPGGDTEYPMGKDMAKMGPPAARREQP

In test [3] the target is T1, mouse SAD-A KD-UBA fragment (kinase …). The experiment in a line: apparent Ki from trans-inhibition of KD-UBA kinase activity; fragment 506-653; residual activity a=0.14.
For test [4] the target is unchanged. As to the kind of experiment: apparent Ki from trans-inhibition of KD-UBA kinase activity; residual activity a=0.34.
For test [5] the target is unchanged. The experiment in a line: apparent Ki from trans-inhibition of KD-UBA kinase activity; residual activity a=0.19.
For test [6] the target is unchanged. The experiment in a line: trans-inhibition of KD-UBA kinase activity, non-competitive fit (a = 0.15).

B1: mouse SAD-A AIS-KA1 fragment (residues 519-653) (domain or fragment)
chain: KKSWFGNFINLEKEEQIFVVIKDKPLSSIKADIVHAFLSIPSLSHSVISQTSFRAEYKATGGPAVFQKPVKFQVDITYTEGGEAQKENGIYSVTFTLLSGPSRRFKRVVETIQAQLLSTHDQPSAQHLSGIIPKS
As to B1, in test [1], the Ki was 5.85 µM.

B2: mouse SAD-A C-terminal fragment containing the sequence N terminal to KA1 (506-530) (domain or fragment)
chain: MSNLTPESSPELAKKSWFGNFINLEKEEQIFVVIKDKPLSSIKADIVHAFLSIPSLSHSVISQTSFRAEYKATGGPAVFQKPVKFQVDITYTEGGEAQKENGIYSVTFTLLSGPSRRFKRVVETIQAQLLSTHDQPSAQHLSGIIPKS
modifications: No chemistry outside the sequence. Built as residues 506-653 of the 653-residue isoform: the N-terminal limit 506 comes from the printed 506-530 segment, and the C-terminal limit 653 is inferred from the protein end, as in the 519-653 and 530-653 fragments. In 4YOM entity 2, position 2 = K519, 14 = K531 and 136 = S653; the initiator Met and the LEHHHHHH tag are left out.
In turn, B2 gave a trans-inhibition of the kinase activity of KD-UBA (10 nM) towards Cdc25C peptide; residual activity at the plateau in test [2] of 15%. Besides, in test [3], the Ki is 5.82 µM. For KKSWFGNFINLE [AIS peptide of mouse SAD-A (residues 519-530)], in test [4], the Ki was found to be 24.8 µM.

As for MSNLTPESSPELAKKSWFGNFINLE [AIS-containing peptide of mouse SAD-A (residues 506-530)], in test [5], the Ki was found to be 15.1 µM. As to MSNLTPESSPELAKKSWFGNFINLE (domain or fragment) [chimeric protein: mouse SAD-A residues 506-530 fused to a C-terminal thioredoxin-tag], the trans-inhibition of the kinase activity of KD-UBA (10 nM) towards Cdc25C peptide; residual activity at the plateau in test [2] came to 15%. This molecule came in with a Ki in test [6] of 7.58 µM.
